Assay results as given in article PMC12102759.

Target: T1, SARS‐CoV‐2 NSP3 SUD‐M domain (1356–1493), tag cleaved, for FP, P0DTD1
T1 chain: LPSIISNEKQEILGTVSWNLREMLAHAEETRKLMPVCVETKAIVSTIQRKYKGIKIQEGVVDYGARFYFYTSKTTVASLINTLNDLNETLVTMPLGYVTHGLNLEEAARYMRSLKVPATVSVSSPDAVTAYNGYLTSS
Assay: fluorescence polarization (FP)-based affinity measurement
Settings: chain shown with the change;; read off a plot

Row | Binder | ratio to parent [fold]
1 | QFTEEDLMFVLYGVTPY [PRDM14 wt peptide 196-211 H203M] | 5.6
2 | QFTEEELHFVLYGVTPY [PRDM14 wt peptide 196-211 D201E] | 14
